Data: the supplement of paper PMC7877785
± gives the uncertainty stated by the source.

Assay: self-splicing fitness, log relative to wild type (ln ratio); higher = more splicing; Tetrahymena group I intron in knt gene, E. coli kanamycin selection, DiMSum; sequences stand for … in CUCUCU…GGAGGGAAAAGUUAUCAGGCAUGCACCUGGUAGCUAGUCUUUAAACCAAUAGAUUGCAUCGGUUUAAAAGGCAAGACCGUCAAAUUGCGGGAAAGGGGUCAACAGCCGUUCAGUACCAAGUCUCAGGGGAAACUUUGAGAUGGCCUUGCAAAGGGUAUGGUAAUAAGCUGACGGACAUGGUCCUAACCACGCAGCCAAGUCCUAAGUCAACAGAUCUUCUGUUGAUAUGGAUGCAGUUCACAGACUAAAUGUCGGUCGGGGAAGAUGUAUUCUUCUCAUAAGAUAUAGUCGGACCUCUCCUUAAUGGGAGCUAGCGGAUGAAGUGAUGCAACACUGGAGCCGCUGGGAACUAAUUUGUAUGCGAAAGUAUAUUGAUUAGUUUUGGAGUACUCGUGGUCG
In short: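 Pooled colonies went to amplicon sequencing on an Illumina HiSeq 2500 after six replicate transformations. The plates were LB agar with 100 μg/mL carbenicillin, 50 μM IPTG and 0.2% rhamnose, with or without 25 μg/mL kanamycin, incubated overnight at 37°C or 30°C. The E. coli BL21(DE3) library had all eight P1ex-region intron nucleotides randomised, the intron placed in the knt kanamycin-resistance gene on pET-22b(+). DiMSum fitness is the error-weighted combination of replicate fold changes, kanamycin against none, normalised to wild type.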

Sequence	self-splicing fitness (ln) (30 °C)	self-splicing fitness (ln) (37 °C)
GAUAAGCAAUAUUACGUUAG	-5.21 ± 0.45	-2.27 ± 0.22
GAUAAGCAAUAUUACGUUGA	-2.88 ± 0.14	-1.79 ± 0.14
GAUAAGCAAUAUUACGUUUA	-1.59 ± 0.12	-0.982 ± 0.12
GAUCAGCAAUAUUACGAAGU	-1.17 ± 0.12	-0.265 ± 0.13
GAUCAGCAAUAUUACGACAC	0.702 ± 0.14	0.591 ± 0.17
GAUCAGCAAUAUUACGACCC	-2.02 ± 0.2	-1.65 ± 0.29
GAUCAGCAAUAUUACGACCG	-1.01 ± 0.11	-0.323 ± 0.14
GAUCAGCAAUAUUACGACUU	0.107 ± 0.092	-0.119 ± 0.11
GAUCAGCAAUAUUACGAGCA	-1.26 ± 0.1	-0.318 ± 0.1
GAUCAGCAAUAUUACGAUCC	-3.69 ± 0.37	-2.18 ± 0.39
GAUCAGCAAUAUUACGCCGA	-0.954 ± 0.12	-0.727 ± 0.11
GAUCAGCAAUAUUACGCGCC	-0.0847 ± 0.14	-0.763 ± 0.17
GAUCAGCAAUAUUACGCUUC	-3.16 ± 0.22	-2.25 ± 0.43
GAUCAGCAAUAUUACGGAGA	-2.08 ± 0.17	-0.869 ± 0.14
GAUCAGCAAUAUUACGGCGC	-0.52 ± 0.11	0.0329 ± 0.14
GAUCAGCAAUAUUACGGGAA	-0.882 ± 0.13	-1.04 ± 0.13
GAUCAGCAAUAUUACGGUGU	-0.951 ± 0.072	0.335 ± 0.093
GAUCAGCAAUAUUACGUACG	-1.5 ± 0.14	-0.586 ± 0.14
GAUCAGCAAUAUUACGUAGG	-1.87 ± 0.1	-1.48 ± 0.14
GAUCAGCAAUAUUACGUGAU	-3.23 ± 0.18	-2.93 ± 0.22
GAUCAGCAAUAUUACGUUAG	-2.05 ± 0.12	-1.92 ± 0.17
GAUCAGCAAUAUUACGUUGG	-3.67 ± 0.24	-0.912 ± 0.12
GAUGAGCAAUAUUACGAAUU	-3.84 ± 0.47	
GAUGAGCAAUAUUACGACUU	-0.252 ± 0.071	0.118 ± 0.089

Sequence	self-splicing fitness (ln) (30 °C)	self-splicing fitness (ln) (37 °C)
GAUGAGCAAUAUUACGAGAU		-3.21 ± 0.47
GAUGAGCAAUAUUACGAGUC	-4.11 ± 0.33	-2.21 ± 0.19
GAUGAGCAAUAUUACGAUAU	-3.81 ± 0.21	-2.58 ± 0.24
GAUGAGCAAUAUUACGCCAG	-3.63 ± 0.22	-3.07 ± 0.4
GAUGAGCAAUAUUACGCGCU	-1.97 ± 0.23	-1.88 ± 0.45
GAUGAGCAAUAUUACGCUAU	-2 ± 0.38	
GAUGAGCAAUAUUACGCUCA	-1.18 ± 0.41	-0.934 ± 0.42
GAUGAGCAAUAUUACGGACC	-0.753 ± 0.19	-0.541 ± 0.22
GAUGAGCAAUAUUACGGAGG	-3.47 ± 0.26	-3.23 ± 0.35
GAUGAGCAAUAUUACGGCGG	-3.43 ± 0.3	-1.88 ± 0.26
GAUGAGCAAUAUUACGUACU	-1.85 ± 0.19	-0.913 ± 0.26
GAUGAGCAAUAUUACGUCCA	-2.12 ± 0.36	-2.26 ± 0.32
GAUGAGCAAUAUUACGUCUG	-2.66 ± 0.19	-2.96 ± 0.28
GAUGAGCAAUAUUACGUGCA	-1.14 ± 0.12	-1.82 ± 0.15
GAUGAGCAAUAUUACGUGCC	-2.92 ± 0.23	-2.3 ± 0.42
GAUUAGCAAUAUUACGAACC	-0.528 ± 0.24	-0.802 ± 0.37
GAUUAGCAAUAUUACGAAUA	-1.1 ± 0.29	-0.71 ± 0.26
GAUUAGCAAUAUUACGAGGC	-4.11 ± 0.46	-1.02 ± 0.28
GAUUAGCAAUAUUACGAUAC	-1.24 ± 0.19	-0.415 ± 0.18
GAUUAGCAAUAUUACGAUGU	-0.783 ± 0.074	-0.611 ± 0.1
GAUUAGCAAUAUUACGAUUU	-0.392 ± 0.12	0.757 ± 0.13
GAUUAGCAAUAUUACGCACC	-1.5 ± 0.081	-0.681 ± 0.084
GAUUAGCAAUAUUACGCGGC	-3.08 ± 0.38	-2 ± 0.35
GAUUAGCAAUAUUACGGAAG	-2.01 ± 0.24	-2.18 ± 0.28

Sequence	self-splicing fitness (ln) (30 °C)	self-splicing fitness (ln) (37 °C)
GAUUAGCAAUAUUACGGAUA	-1.36 ± 0.17	0.0656 ± 0.2
GAUUAGCAAUAUUACGGCAG	-2.78 ± 0.31	-1.84 ± 0.23
GAUUAGCAAUAUUACGGCCC	-0.175 ± 0.083	-0.352 ± 0.12
GAUUAGCAAUAUUACGGCCU	-1.39 ± 0.12	-0.323 ± 0.098
GAUUAGCAAUAUUACGGUCG	-1.28 ± 0.11	-0.366 ± 0.13
GAUUAGCAAUAUUACGGUGG	-2.89 ± 0.2	-2.88 ± 0.2
GAUUAGCAAUAUUACGUAGU	-3.06 ± 0.15	-1.34 ± 0.12
GAUUAGCAAUAUUACGUGAG	-1.33 ± 0.073	0.0593 ± 0.096
GAUUAGCAAUAUUACGUGAU	-3.04 ± 0.11	-1.07 ± 0.091
GAUUAGCAAUAUUACGUGCC	0.747 ± 0.28	-0.667 ± 0.46
GCAAAGCAAUAUUACGAAAC	-1.75 ± 0.092	-0.783 ± 0.11
GCAAAGCAAUAUUACGAAUU	-2.67 ± 0.15	-0.942 ± 0.11
GCAAAGCAAUAUUACGACCU	-1.17 ± 0.13	0.204 ± 0.16
GCAAAGCAAUAUUACGAGCC	-2.28 ± 0.28	
GCAAAGCAAUAUUACGAGCG	-1.06 ± 0.077	-0.631 ± 0.093
GCAAAGCAAUAUUACGAUGA	-0.578 ± 0.076	0.353 ± 0.096
GCAAAGCAAUAUUACGCGCG	-1.55 ± 0.12	-0.161 ± 0.15
GCAAAGCAAUAUUACGCGUG	-3.41 ± 0.1	-1.27 ± 0.078
GCAAAGCAAUAUUACGCGUU	-1.96 ± 0.13	-2.03 ± 0.2
GCAAAGCAAUAUUACGCUUG	-3.98 ± 0.18	-2.64 ± 0.18
GCAAAGCAAUAUUACGCUUU	-3.49 ± 0.15	-3.27 ± 0.22
GCAAAGCAAUAUUACGGAUC	-1.26 ± 0.073	-0.379 ± 0.085
GCAAAGCAAUAUUACGGCCC	-0.121 ± 0.18	-0.618 ± 0.27
GCAAAGCAAUAUUACGGCUG	-2.43 ± 0.14	-1.24 ± 0.17

Sequence	self-splicing fitness (ln) (30 °C)	self-splicing fitness (ln) (37 °C)
GCAAAGCAAUAUUACGGGUC	-2.55 ± 0.14	-1.05 ± 0.12
GCAAAGCAAUAUUACGGUUC	-2.17 ± 0.089	-0.948 ± 0.11
GCAAAGCAAUAUUACGUACG	-1.13 ± 0.083	-1.84 ± 0.13
GCAAAGCAAUAUUACGUAUC	-2.35 ± 0.082	-1.74 ± 0.076
GCAAAGCAAUAUUACGUGAA	-0.989 ± 0.099	-0.0746 ± 0.12
GCAAAGCAAUAUUACGUUAA	-1.83 ± 0.14	-1.45 ± 0.14
GCAAAGCAAUAUUACGUUAC	-2.75 ± 0.19	-1.3 ± 0.15
GCACAGCAAUAUUACGAACG	-1.53 ± 0.1	-0.558 ± 0.13
GCACAGCAAUAUUACGAAUC	-1.15 ± 0.076	-0.69 ± 0.079
GCACAGCAAUAUUACGACCA	-0.551 ± 0.11	-0.554 ± 0.14
GCACAGCAAUAUUACGACUC	-0.289 ± 0.067	0.76 ± 0.083
GCACAGCAAUAUUACGAUCU	-0.54 ± 0.064	0.0668 ± 0.085
GCACAGCAAUAUUACGCAGC		-1.85 ± 0.21
GCACAGCAAUAUUACGCAUC	-1.07 ± 0.083	-0.51 ± 0.096
GCACAGCAAUAUUACGCCCG	-1.84 ± 0.17	-0.0618 ± 0.19
GCACAGCAAUAUUACGCGCA	-0.993 ± 0.099	-0.327 ± 0.093
GCACAGCAAUAUUACGCUGC	-4.12 ± 0.37	-2.1 ± 0.3
GCACAGCAAUAUUACGCUGU	-3.33 ± 0.14	-2.23 ± 0.17
GCACAGCAAUAUUACGGACU	-0.665 ± 0.082	-0.54 ± 0.086
GCACAGCAAUAUUACGGCUA	-0.204 ± 0.081	-0.393 ± 0.085
GCACAGCAAUAUUACGGGUA	-1.36 ± 0.055	-0.723 ± 0.061
GCACAGCAAUAUUACGGUCA	-0.62 ± 0.08	-0.276 ± 0.074
GCACAGCAAUAUUACGGUGA	-0.308 ± 0.07	-0.455 ± 0.079
GCACAGCAAUAUUACGUAAC	-1.83 ± 0.092	-0.651 ± 0.11
